Assays:
Experiment in all cases: cell-based or functional assay
[1] = target: HIV-1 strain T278-50 envelope (gp120) (HIV-1)
[2] = target: HIV-1 strain 3817.v2.c59 envelope (gp120) (HIV-1)
[3] = target: HIV-1 strain 0330.v4.c3 envelope (gp120) (HIV-1)
[4] = target: HIV-1 strain ZM214M.PL15 envelope (gp120) (HIV-1)
[5] = target: HIV-1 strain Q259.d2.17 envelope (gp120) (HIV-1)
[6] = target: HIV-1 Env of strain C2101.c01 (HIV-1)
[7] = target: HIV-1 Env of strain T255-34 (HIV-1)
[8] = target: HIV-1 strain CAP45.2.00.G3 envelope (gp120) (HIV-1)
[9] = target: HIV-1 strain Q842.d12 envelope (gp120) (HIV-1)
[10] = target: HIV-1 Env of strain CNE17 (HIV-1)
[11] = target: HIV-1 strain WEAU_d15_410_787 envelope (gp120) (HIV-1)
[12] = target: HIV-1 strain 0815.v3.c3 envelope (gp120) (HIV-1)
[13] = target: HIV-1 Env of strain 6811.v7.c18 (HIV-1)
[14] = target: HIV-1 strain TRO.11 envelope (gp120) (HIV-1)
[15] = target: HIV-1 strain TRJO4551.58 envelope (gp120) (HIV-1)
[16] = target: HIV-1 Env of strain ZM197M.PB7 (HIV-1)
[17] = target: HIV-1 Env of strain REJO4541.67 (HIV-1)
[18] = target: HIV-1 Env of strain 3016.v5.c45 (HIV-1)
[19] = target: HIV-1 Env of strain X1193_c1 (HIV-1)
[20] = target: HIV-1 strain Du422.1 envelope (gp120) (HIV-1)
[21] = target: HIV-1 strain 89-F1_2_25 envelope (gp120) (HIV-1)
[22] = target: HIV-1 Env of strain CNE58 (HIV-1)
[23] = target: HIV-1 strain Ce0393_C3 envelope (gp120) (HIV-1)
[24] = target: HIV-1 strain CAP210.2.00.E8 envelope (gp120) (HIV-1)
[25] = target: HIV-1 strain ZM249M.PL1 envelope (gp120) (HIV-1)
[26] = target: HIV-1 strain Ce703010054_2A2 envelope (gp120) (HIV-1)
[27] = target: HIV-1 Env of strain C1080.c03 (HIV-1)
[28] = target: HIV-1 strain Ce1176_A3 envelope (gp120) (HIV-1)
[29] = target: HIV-1 Env of strain 211-9 (HIV-1)
[30] = target: HIV-1 Env of strain 1054_07_TC4_1499 (HIV-1)
[31] = target: HIV-1 strain QH0692.42 envelope (gp120) (HIV-1)
[32] = target: HIV-1 strain 231965.c01 envelope (gp120) (HIV-1)
[33] = target: HIV-1 Env of strain Q842.d12 (HIV-1)
[34] = target: HIV-1 Env of strain 928-28 (HIV-1)
[35] = target: HIV-1 strain 6540.v4.c1 envelope (gp120) (HIV-1)
[36] = target: HIV-1 strain CNE20 envelope (gp120) (HIV-1)
[37] = target: HIV-1 Env of strain CAP45.2.00.G3 (HIV-1)
[38] = target: HIV-1 Env of strain 620345.c01 (HIV-1)
[39] = target: HIV-1 strain 3016.v5.c45 envelope (gp120) (HIV-1)
[40] = target: HIV-1 strain X2131_C1_B5 envelope (gp120) (HIV-1)
[41] = target: HIV-1 Env of strain 1056_10_TA11_1826 (HIV-1)
[42] = target: HIV-1 Env of strain Ce2060_G9 (HIV-1)
[43] = target: HIV-1 strain P1981_C5_3 envelope (gp120) (HIV-1)
[44] = target: HIV-1 strain Ce0682_E4 envelope (gp120) (HIV-1)
[45] = target: HIV-1 Env of strain T251-18 (HIV-1)
[46] = target: HIV-1 Env of strain P0402_c2_11 (HIV-1)
[47] = target: HIV-1 Env of strain 0815.v3.c3 (HIV-1)
[48] = target: HIV-1 strain Q23.17 envelope (gp120) (HIV-1)
[49] = target: HIV-1 strain CNE53 envelope (gp120) (HIV-1)
[50] = target: HIV-1 Env of strain CAP210.2.00.E8 (HIV-1)

B1: NIH45-46^G54Y IgG (antibody, name in Kabat numbering, V domains shown)
VH: QVRLSQSGGQMKKPGESMRLSCRASGYEFLNCPINWIRLAPGRRPEWMGWLKPRYGAVNYARKFQGRVTMTRDVYSDTAFLELRSLTSDDTAVYFCTRGKYCTARDYYNWDFEHWGRGAPVTVSS
VL: EIVLTQSPATLSLSPGETAIISCRTSQSGSLAWYQQRPGQAPRLVIYSGSTRAAGIPDRFSGSRWGADYNLSISNLESGDFGVYYCQQYEFFGQGTKVQVDI
neutralization IC80 [1]: > 50 µg/mL | neutralization IC80 [2]: > 50 µg/mL | neutralization IC80 [3]: 0.09 µg/mL | neutralization IC80 [4]: 0.23 µg/mL | neutralization IC80 [5]: 0.034 µg/mL | neutralization IC50 [6]: 0.09 µg/mL | neutralization IC50 [7]: 0.04 µg/mL | neutralization IC80 [8]: > 50 µg/mL | neutralization IC80 [9]: 0.045 µg/mL | neutralization IC50 [10]: 0.073 µg/mL | neutralization IC80 [11]: 8 ng/mL | neutralization IC80 [12]: 0.015 µg/mL | neutralization IC50 [13]: 0.011 µg/mL | neutralization IC80 [14]: 0.22 µg/mL | neutralization IC80 [15]: 0.07 µg/mL | neutralization IC50 [16]: 0.07 µg/mL | neutralization IC50 [17]: 7 ng/mL | neutralization IC50 [18]: 17.9 µg/mL | neutralization IC50 [19]: 6 ng/mL | neutralization IC80 [20]: > 50 µg/mL | neutralization IC80 [21]: > 50 µg/mL | neutralization IC50 [22]: 0.04 µg/mL | neutralization IC80 [23]: 0.134 µg/mL | neutralization IC80 [24]: > 50 µg/mL | neutralization IC80 [25]: 0.011 µg/mL | neutralization IC80 [26]: 0.07 µg/mL | neutralization IC50 [27]: 0.29 µg/mL | neutralization IC80 [28]: 0.58 µg/mL | neutralization IC50 [29]: > 50 µg/mL | neutralization IC50 [30]: 0.064 µg/mL | neutralization IC80 [31]: 1.5 µg/mL | neutralization IC80 [32]: 0.054 µg/mL | neutralization IC50 [33]: 0.015 µg/mL | neutralization IC50 [34]: 0.12 µg/mL | neutralization IC80 [35]: > 50 µg/mL | neutralization IC80 [36]: 2.4 µg/mL | neutralization IC50 [37]: > 50 µg/mL | neutralization IC50 [38]: > 50 µg/mL | neutralization IC80 [39]: > 50 µg/mL | neutralization IC80 [40]: 0.39 µg/mL | neutralization IC50 [41]: 0.044 µg/mL | neutralization IC50 [42]: 0.021 µg/mL | neutralization IC80 [43]: 0.09 µg/mL | neutralization IC80 [44]: 0.065 µg/mL | neutralization IC50 [45]: 0.35 µg/mL | neutralization IC50 [46]: 12 ng/mL | neutralization IC50 [47]: < 1 ng/mL | neutralization IC80 [48]: 0.06 µg/mL | neutralization IC80 [49]: 0.027 µg/mL

B2: NIH45-46^G54W (antibody, V domains shown)
VH: QVRLSQSGGQMKKPGESMRLSCRASGYEFLNCPINWIRLAPGRRPEWMGWLKPRWGAVNYARKFQGRVTMTRDVYSDTAFLELRSLTSDDTAVYFCTRGKYCTARDYYNWDFEHWGRGAPVTVSS
VL: EIVLTQSPATLSLSPGETAIISCRTSQSGSLAWYQQRPGQAPRLVIYSGSTRAAGIPDRFSGSRWGADYNLSISNLESGDFGVYYCQQYEFFGQGTKVQVDI
IC50, pseudovirus neutralization [6]: 0.04 µg/mL | IC50, pseudovirus neutralization [7]: 1 ng/mL | IC50, pseudovirus neutralization [10]: 0.036 µg/mL | IC50, pseudovirus neutralization [13]: 0.001 µg/mL | IC50, pseudovirus neutralization [16]: 0.04 µg/mL | IC50, pseudovirus neutralization [17]: 2 ng/mL | IC50, pseudovirus neutralization [18]: 1.47 µg/mL | IC50, pseudovirus neutralization [19]: 1 ng/mL | IC50, pseudovirus neutralization [22]: 0.02 µg/mL | IC50, pseudovirus neutralization [27]: 0.2 µg/mL | IC50, pseudovirus neutralization [29]: 16.4 µg/mL | IC50, pseudovirus neutralization [30]: 0.04 µg/mL | IC50, pseudovirus neutralization [33]: 5 ng/mL | IC50, pseudovirus neutralization [34]: 0.06 µg/mL | IC50, pseudovirus neutralization [37]: 32.2 µg/mL | IC50, pseudovirus neutralization [38]: > 50 µg/mL | IC50, pseudovirus neutralization [41]: 0.024 µg/mL | IC50, pseudovirus neutralization [42]: 5 ng/mL | IC50, pseudovirus neutralization [45]: 0.26 µg/mL | IC50, pseudovirus neutralization [46]: 3 ng/mL | IC50, pseudovirus neutralization [47]: 1 ng/mL | IC50, pseudovirus neutralization [50]: > 50 µg/mL

B3: NIH45-46^G54W(HC), S28Y(LC) (antibody, V domains shown)
VH: QVRLSQSGGQMKKPGESMRLSCRASGYEFLNCPINWIRLAPGRRPEWMGWLKPRWGAVNYARKFQGRVTMTRDVYSDTAFLELRSLTSDDTAVYFCTRGKYCTARDYYNWDFEHWGRGAPVTVSS
VL: EIVLTQSPATLSLSPGETAIISCRTSQYGSLAWYQQRPGQAPRLVIYSGSTRAAGIPDRFSGSRWGADYNLSISNLESGDFGVYYCQQYEFFGQGTKVQVDI
IC50, pseudovirus neutralization [6]: 0.044 µg/mL | IC50, pseudovirus neutralization [7]: 13 ng/mL | IC50, pseudovirus neutralization [10]: 0.064 µg/mL | IC50, pseudovirus neutralization [13]: 0.026 µg/mL | IC50, pseudovirus neutralization [16]: 0.074 µg/mL | IC50, pseudovirus neutralization [17]: 1 ng/mL | IC50, pseudovirus neutralization [18]: 0.006 µg/mL | IC50, pseudovirus neutralization [19]: 8 ng/mL | IC50, pseudovirus neutralization [22]: 0.016 µg/mL | IC50, pseudovirus neutralization [27]: 0.154 µg/mL | IC50, pseudovirus neutralization [29]: 0.253 µg/mL | IC50, pseudovirus neutralization [30]: 0.104 µg/mL | IC50, pseudovirus neutralization [33]: 1 ng/mL | IC50, pseudovirus neutralization [34]: 0.045 µg/mL | IC50, pseudovirus neutralization [37]: 0.02 µg/mL | IC50, pseudovirus neutralization [38]: > 50 µg/mL | IC50, pseudovirus neutralization [41]: 0.057 µg/mL | IC50, pseudovirus neutralization [42]: 14 ng/mL | IC50, pseudovirus neutralization [45]: 0.336 µg/mL | IC50, pseudovirus neutralization [46]: 10 ng/mL | IC50, pseudovirus neutralization [47]: 1 ng/mL | IC50, pseudovirus neutralization [50]: 1.95 µg/mL

B4: NIH45-46^G54F IgG (antibody, name in Kabat numbering, V domains shown)
VH: QVRLSQSGGQMKKPGESMRLSCRASGYEFLNCPINWIRLAPGRRPEWMGWLKPRFGAVNYARKFQGRVTMTRDVYSDTAFLELRSLTSDDTAVYFCTRGKYCTARDYYNWDFEHWGRGAPVTVSS
VL: EIVLTQSPATLSLSPGETAIISCRTSQSGSLAWYQQRPGQAPRLVIYSGSTRAAGIPDRFSGSRWGADYNLSISNLESGDFGVYYCQQYEFFGQGTKVQVDI
neutralization IC80 [1]: > 50 µg/mL | neutralization IC80 [2]: > 50 µg/mL | neutralization IC80 [3]: 0.13 µg/mL | neutralization IC80 [4]: 0.3 µg/mL | neutralization IC80 [5]: 0.036 µg/mL | neutralization IC50 [6]: 0.11 µg/mL | neutralization IC50 [7]: 0.03 µg/mL | neutralization IC80 [8]: > 50 µg/mL | neutralization IC80 [9]: 0.039 µg/mL | neutralization IC50 [10]: 0.075 µg/mL | neutralization IC80 [11]: 4 ng/mL | neutralization IC80 [12]: 0.014 µg/mL | neutralization IC50 [13]: 0.017 µg/mL | neutralization IC80 [14]: 0.3 µg/mL | neutralization IC80 [15]: 0.08 µg/mL | neutralization IC50 [16]: 0.09 µg/mL | neutralization IC50 [17]: 7 ng/mL | neutralization IC50 [18]: 5.82 µg/mL | neutralization IC50 [19]: < 1 ng/mL | neutralization IC80 [20]: > 50 µg/mL | neutralization IC80 [21]: > 50 µg/mL | neutralization IC50 [22]: 0.04 µg/mL | neutralization IC80 [23]: 0.173 µg/mL | neutralization IC80 [24]: > 50 µg/mL | neutralization IC80 [25]: 0.016 µg/mL | neutralization IC80 [26]: 0.07 µg/mL | neutralization IC50 [27]: 0.36 µg/mL | neutralization IC80 [28]: 0.83 µg/mL | neutralization IC50 [29]: > 50 µg/mL | neutralization IC50 [30]: 0.076 µg/mL | neutralization IC80 [31]: 1.65 µg/mL | neutralization IC80 [32]: 0.062 µg/mL | neutralization IC50 [33]: 0.011 µg/mL | neutralization IC50 [34]: 0.11 µg/mL | neutralization IC80 [35]: > 50 µg/mL | neutralization IC80 [36]: 3.91 µg/mL | neutralization IC50 [38]: > 50 µg/mL | neutralization IC80 [39]: 37 µg/mL | neutralization IC80 [40]: 0.41 µg/mL | neutralization IC50 [41]: 0.064 µg/mL | neutralization IC50 [42]: 0.022 µg/mL | neutralization IC80 [43]: 0.11 µg/mL | neutralization IC80 [44]: 0.056 µg/mL | neutralization IC50 [45]: 0.41 µg/mL | neutralization IC50 [46]: 8 ng/mL | neutralization IC50 [47]: < 1 ng/mL | neutralization IC80 [48]: 0.07 µg/mL | neutralization IC80 [49]: 0.024 µg/mL
